From the supplement of paper PMC10724198
± gives the standard deviation of the averaged measurements.

What was measured:
Saccharomyces cerevisiae [1] = assay: protein stability index of tFT-peptide fusion (C-terminal peptide) (PSI (0-1 scale)); higher = more stable (slower turnover)
Method: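 MPS profiling in S. cerevisiae of the tFT-X12 degron library: putative degron peptides plus stable controls, 12 aa, fused to the C-terminus of a sfGFP-mCherry timer. Cells are FACS-sorted into 8 mCherry/sfGFP bins and deep-sequenced. PSI runs from 0 (unstable) to 1 (stable). Backgrounds are wild type, das1Δ and doa10Δ at 30 °C, and wild type, das1Δ, cdc34-1 and cdc53-1 at 37 °C; 2-3 technical replicates each.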

Saccharomyces cerevisiae [2] = assay: as above; conditions: genetic background: wild type; temperature: 30 C
[3] = genetic background: cdc34-1, temperature: 37 C
[4] = genetic background: cdc53-1, temperature: 37 C
[5] = genetic background: das1 deletion, temperature: 30 C
[6] = genetic background: das1 deletion, temperature: 37 C
[7] = genetic background: doa10 deletion, temperature: 30 C
[8] = genetic background: wild type, temperature: 30 C
[9] = genetic background: wild type, temperature: 37 C
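Note: PSI is a weighted mean of sequencing reads over stability bins, variants kept only with over 10 reads, mCherry proximal and sfGFP distal, peptide attached via GGGS linker.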

Row | Sequence | protein stability index (Saccharomyces cerevisiae [1]; [3]) | protein stability index (Saccharomyces cerevisiae [1]; [4]) | protein stability index (Saccharomyces cerevisiae [1]; [5]) | protein stability index (Saccharomyces cerevisiae [1]; [6]) | protein stability index (Saccharomyces cerevisiae [1]; [7]) | protein stability index (Saccharomyces cerevisiae [1]; [8]) | protein stability index (Saccharomyces cerevisiae [1]; [9]) | protein stability index (Saccharomyces cerevisiae [2])
1 | FLFVFLGVYGHV | 0.281 ± 0.02 | 0.409 ± 0.018 | 0.271 ± 0.044 | 0.494 ± 0.027 | 0.27 ± 0.0047 | 0.288 ± 0.029 | 0.46 ± 0.0054 | 0.404 ± 0.012
2 | FLVGVARCPFLV | 0.632 ± 0.069 | 0.7 ± 0.015 | 0.587 ± 0.018 | 0.725 ± 0.053 | 0.244 ± 0.021 | 0.254 ± 0.034 | 0.401 ± 0.012 | 0.361 ± 0.012
3 | ILVYFQAHAIKI | 0.1592 ± 0.00018 | 0.189 ± 0.015 | 0.0937 ± 0.022 | 0.199 ± 0.0036 | 0.0645 ± 0.012 | 0.0874 ± 0.027 | 0.202 ± 0.01 | 0.129 ± 0.0092
4 | SCPEFNIRVRNG | 0.641 ± 0.033 | 0.669 ± 0.047 | 0.661 ± 0.023 | 0.731 ± 0.012 | 0.138 ± 0.022 | 0.168 ± 0.028 | 0.409 ± 0.045 | 0.297 ± 0.11
5 | KQNKKHKKLKSN | 0.543 ± 0.051 | 0.718 ± 0.051 | 0.66 ± 0.026 | 0.694 ± 0.021 | 0.111 ± 0.0086 | 0.0929 ± 0.018 | 0.182 ± 0.036 | 0.182 ± 0.091
6 | CLHWFMVLFRVL | 0.139 ± 0.051 | 0.12 ± 0.018 | 0.296 ± 0.043 | 0.426 ± 0.0053 | 0.212 ± 0.013 | 0.122 ± 0.037 | 0.203 ± 0.015 | 0.119 ± 0.022
7 | GFRMACYIRVLS | 0.337 ± 0.015 | 0.38 ± 0.017 | 0.245 ± 0.046 | 0.445 ± 0.0051 | 0.175 ± 0.01 | 0.182 ± 0.026 | 0.286 ± 0.02 | 0.296 ± 0.016
8 | LCWLCIRWSRVV | 0.368 ± 0.044 | 0.543 ± 0.023 | 0.443 ± 0.017 | 0.589 ± 0.013 | 0.0721 ± 0.015 | 0.0746 ± 0.012 | 0.085 ± 0.02 | 0.152 ± 0.0052
9 | SLYSFRCFFVLF | 0.35 ± 0.027 | 0.461 ± 0.022 | 0.408 ± 0.022 | 0.51 ± 0.019 | 0.182 ± 0.0065 | 0.17 ± 0.012 | 0.235 ± 0.0058 | 0.263 ± 0.032
10 | GFSFVCFSPFLF | 0.667 ± 0.041 | 0.779 ± 0.02 | 0.65 ± 0.0058 | 0.745 ± 0.011 | 0.3864 ± 0.0023 | 0.41 ± 0.02 | 0.5401 ± 0.001 | 0.42 ± 0.038
11 | FFSSSASVLFII | 0.686 ± 0.11 | 0.7852 ± 0.0067 | 0.663 ± 0.029 | 0.79 ± 0.0075 | 0.19 ± 0.015 | 0.198 ± 0.016 | 0.394 ± 0.039 | 0.299 ± 0.016
12 | SFFSFLLLRVPC | 0.119 ± 0.022 | 0.144 ± 0.019 | 0.203 ± 0.026 | 0.303 ± 0.022 | 0.199 ± 0.0044 | 0.201 ± 0.026 | 0.288 ± 0.043 | 0.308 ± 0.03
13 | SILVLGRSVGVG | 0.436 ± 0.026 | 0.4817 ± 0.00055 | 0.44 ± 0.027 | 0.521 ± 0.023 | 0.451 ± 0.0099 | 0.442 ± 0.01 | 0.49 ± 0.018 | 0.519 ± 0.07
14 | FFLPIFFSIFLS | 0.068 ± 0.038 | 0.0346 ± 0.0085 | 0.152 ± 0.017 | 0.198 ± 0.0023 | 0.281 ± 0.0056 | 0.108 ± 0.022 | 0.155 ± 0.0049 | 0.156 ± 0.013
15 | VFLRFVLSFFLL | 0.542 ± 0.03 | 0.629 ± 0.023 | 0.526 ± 0.023 | 0.608 ± 0.0045 | 0.424 ± 0.02 | 0.418 ± 0.013 | 0.489 ± 0.0065 | 0.4516 ± 0.001
16 | VWWGVGVWLLVG | 0.104 ± 0.025 | 0.176 ± 0.02 | 0.242 ± 0.015 | 0.369 ± 0.011 | 0.0694 ± 0.016 | 0.0673 ± 0.018 | 0.0755 ± 0.036 | 0.147 ± 0.04
17 | LLLSLYFCFIFF | 0.207 ± 0.025 | 0.152 ± 0.004 | 0.245 ± 0.035 | 0.332 ± 0.018 | 0.337 ± 0.0086 | 0.226 ± 0.022 | 0.309 ± 0.033 | 0.329 ± 0.074
18 | CYSRRGCIYFFF | 0.564 ± 0.029 | 0.693 ± 0.009 | 0.583 ± 0.016 | 0.698 ± 0.0099 | 0.0971 ± 0.018 | 0.101 ± 0.022 | 0.157 ± 0.0033 | 0.192 ± 0.037
19 | VSWDMLYFWFIQ | 0.664 ± 0.089 | 0.693 ± 0.041 | 0.603 ± 0.059 | 0.764 ± 0.033 | 0.307 ± 0.017 | 0.304 ± 0.028 | 0.554 ± 0.016 | 0.416 ± 0.002
